Biological target: T1, wt.CK2-alpha-prime immobilized on GST-beads (UniProt P19784 1-350)
T1 construct: also called GST-CK2-alpha-prime; recombinant CK2-alpha-prime; not shown: N-terminal GST tag of pGEX-2lambdaT
Assay: GST pull-down of in vitro-translated His-tagged p27 mutants on GST-CK2-alpha-prime, anti-His immunoblot

T1 sequence (P19784 whole entry): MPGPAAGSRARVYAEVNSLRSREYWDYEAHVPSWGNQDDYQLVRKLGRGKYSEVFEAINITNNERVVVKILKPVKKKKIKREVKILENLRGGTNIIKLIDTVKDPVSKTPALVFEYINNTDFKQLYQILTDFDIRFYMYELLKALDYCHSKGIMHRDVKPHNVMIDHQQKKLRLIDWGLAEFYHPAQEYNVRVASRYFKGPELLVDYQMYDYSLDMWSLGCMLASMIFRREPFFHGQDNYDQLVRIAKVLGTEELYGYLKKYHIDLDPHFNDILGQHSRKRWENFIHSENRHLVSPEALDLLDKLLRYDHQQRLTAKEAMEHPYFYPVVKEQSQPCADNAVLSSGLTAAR

B1: p27deltaC (p27.1-86), in vitro-translated His-tagged truncation mutant of p27 (other)
chain: MSNVRVSNGSPSLERMDARQADHPKPSACRNLFGPVDHEELTRDLEKHCRDMEEASQRKWNFDFQNHKPLEGKYEWQEVEKGSLPE
notes: also called p27ΔC; not shown: N-terminal His-tag of pEXP2
binding result: no binding

From patent US20110086089A1 (UNIVERSITY HEALTH NETWORK, published 2011)
